Experimental data: patent US20260115255A1
Read-outs that look alike come from different tables or passages of the source.

How the values were obtained:
[1] = molecular target: IL-2/IL-15Rβγ on kit225 cells (UniProt P14784); assay: cell-based or functional assay
[2] = molecular target: IL-2/IL-15Rβγ on kit225 cells (UniProt P14784); assay: cell-based or functional assay; remark: listed apart in the source
[3] = molecular target: PD-1 on PD-1 Effector Cells (UniProt Q15116); assay: cell-based or functional assay
FcγRIIIa F158 (human) = FcγRIIIa F158 (human) (UniProt P08637); assay: SPR; ratio of affinity (1/Kd) for FcγRIIIa F158 to affinity for FcγRIIb
FcγRIIIa V158 (human) = FcγRIIIa V158 (human) (UniProt P08637); assay: SPR; ratio of affinity (1/Kd) for FcγRIIIa V158 to affinity for FcγRIIb

IL-2/IL-15Rβγ on kit225 cells, sequence (P14784 27-551 limits assumed, chain 1 of 2): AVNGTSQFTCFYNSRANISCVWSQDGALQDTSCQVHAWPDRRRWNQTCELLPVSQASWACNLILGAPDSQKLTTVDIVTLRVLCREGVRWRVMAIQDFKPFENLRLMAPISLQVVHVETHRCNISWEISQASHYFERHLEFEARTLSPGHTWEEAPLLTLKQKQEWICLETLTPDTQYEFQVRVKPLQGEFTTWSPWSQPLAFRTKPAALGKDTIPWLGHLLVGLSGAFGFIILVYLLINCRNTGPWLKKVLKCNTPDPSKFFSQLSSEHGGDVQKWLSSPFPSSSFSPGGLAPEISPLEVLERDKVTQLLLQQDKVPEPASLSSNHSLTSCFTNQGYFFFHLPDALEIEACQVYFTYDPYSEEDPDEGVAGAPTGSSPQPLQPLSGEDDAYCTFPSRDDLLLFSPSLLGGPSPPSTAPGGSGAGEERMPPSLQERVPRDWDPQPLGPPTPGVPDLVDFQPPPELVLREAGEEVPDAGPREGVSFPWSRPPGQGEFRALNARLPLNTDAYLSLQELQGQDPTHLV
IL-2/IL-15Rβγ on kit225 cells, sequence (P31785 23-369 limits assumed, chain 2 of 2, further chain): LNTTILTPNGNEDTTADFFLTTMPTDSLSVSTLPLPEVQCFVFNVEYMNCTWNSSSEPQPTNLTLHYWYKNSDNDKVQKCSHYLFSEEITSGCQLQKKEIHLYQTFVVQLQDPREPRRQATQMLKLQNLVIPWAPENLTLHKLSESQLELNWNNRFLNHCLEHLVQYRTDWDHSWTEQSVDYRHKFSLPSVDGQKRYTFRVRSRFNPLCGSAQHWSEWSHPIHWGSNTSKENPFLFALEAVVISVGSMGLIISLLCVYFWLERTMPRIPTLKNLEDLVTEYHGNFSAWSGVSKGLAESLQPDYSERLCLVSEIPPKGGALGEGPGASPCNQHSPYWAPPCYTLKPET
PD-1 on PD-1 Effector Cells, sequence (Q15116 25-288 limits assumed): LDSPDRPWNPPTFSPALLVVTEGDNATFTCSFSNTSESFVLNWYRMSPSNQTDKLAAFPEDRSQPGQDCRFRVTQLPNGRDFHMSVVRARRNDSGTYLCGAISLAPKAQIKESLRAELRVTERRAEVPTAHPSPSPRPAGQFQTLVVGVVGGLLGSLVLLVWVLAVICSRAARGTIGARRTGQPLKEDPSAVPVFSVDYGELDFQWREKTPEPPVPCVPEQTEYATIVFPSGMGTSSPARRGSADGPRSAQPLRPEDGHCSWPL

EC50 kit225 cells [1]	Relative potency to SOT101 [1]	EC50 kit225 cells [2]	EC50 on kit225 cells [2]	Relative potency to SOT201 [2]	EC50, PD-1/PD-L1 Blockade Bioassay [3]	Relative potency vs Keytruda [3]	A/I (F158) (FcγRIIIa F158 (human))	A/I (V158) (FcγRIIIa V158 (human))	Substance
3.02 nM	1.19%	3.94 nM	3.02 nM	455%	4.57 nM	38.6%	–	–	PD1-IL2v
0.249 nM	14.4%	–	–	–	–	–	–	–	SOT201 wt (with RLI2AQ)
–	–	–	–	–	–	–	32.9	161	Zolbetuximab (antibody)
